T1: FUT9 (Homo sapiens, UniProt Q9Y231)
T1 construct: purchased Bio-Techne (Minneapolis, MN)
T1 sequence (Q9Y231 1-359): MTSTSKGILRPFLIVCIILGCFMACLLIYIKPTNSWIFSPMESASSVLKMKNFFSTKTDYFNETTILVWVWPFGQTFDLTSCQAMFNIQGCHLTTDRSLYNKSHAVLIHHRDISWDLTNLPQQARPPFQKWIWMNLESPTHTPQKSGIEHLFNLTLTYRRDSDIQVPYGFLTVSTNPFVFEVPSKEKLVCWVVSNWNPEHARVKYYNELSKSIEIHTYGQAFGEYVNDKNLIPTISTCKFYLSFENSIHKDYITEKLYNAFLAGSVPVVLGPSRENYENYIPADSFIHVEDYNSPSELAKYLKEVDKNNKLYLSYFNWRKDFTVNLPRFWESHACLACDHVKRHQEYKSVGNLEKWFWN

B1: FUT2: recombinant fucosyltransferase, α1-2 linked fucose (protein, UniProt Q10981 1-343, looked up)
Galactoside …: MLVVQMPFSFPMAHFILFVFTVSTIFHVQQRLAKIQAMWELPVQIPVLASTSKALGPSQLRGMWTINAIGRLGNQMGEYATLYALAKMNGRPAFIPAQMHSTLAPIFRITLPVLHSATASRIPWQNYHLNDWMEEEYRHIPGEYVRFTGYPCSWTFYHHLRQEILQEFTLHDHVREEAQKFLRGLQVNGSRPGTFVGVHVRRGDYVHVMPKVWKGVVADRRYLQQALDWFRARYSSLIFVVTSNGMAWCRENIDTSHGDVVFAGDGIEGSPAKDFALLTQCNHTIMTIGTFGIWAAYLTGGDTIYLANYTLPDSPFLKIFKPEAAFLPEWTGIAADLSPLLKH
B2: α-2,3-sialyltransferase 1 (protein, UniProt Q11201 1-340, looked up)
CMP-N-acetylneuraminate-beta-g …: MVTLRKRTLKVLTFLVLFIFLTSFFLNYSHTMVATTWFPKQMVLELSENLKRLIKHRPCTCTHCIGQRKLSAWFDERFNQTMQPLLTAQNALLEDDTYRWWLRLQREKKPNNLNDTIKELFRVVPGNVDPMLEKRSVGCRRCAVVGNSGNLRESSYGPEIDSHDFVLRMNKAPTAGFEADVGTKTTHHLVYPESFRELGDNVSMILVPFKTIDLEWVVSAITTGTISHTYIPVPAKIRVKQDKILIYHPAFIKYVFDNWLQGHGRYPSTGILSVIFSMHVCDEVDLYGFGADSKGNWHHYWENNPSAGAFRKTGVHDADFESNVTATLASINKIRIFKGR
notes: recombinant human sialyltransferase, Core-1 O-glycan specific
B3: α-2,6-sialyltransferase 1 (protein, UniProt P15907 1-406, looked up)
Beta-galactoside …: MIHTNLKKKFSCCVLVFLLFAVICVWKEKKKGSYYDSFKLQTKEFQVLKSLGKLAMGSDSQSVSSSSTQDPHRGRQTLGSLRGLAKAKPEASFQVWNKDSSSKNLIPRLQKIWKNYLSMNKYKVSYKGPGPGIKFSAEALRCHLRDHVNVSMVEVTDFPFNTSEWEGYLPKESIRTKAGPWGRCAVVSSAGSLKSSQLGREIDDHDAVLRFNGAPTANFQQDVGTKTTIRLMNSQLVTTEKRFLKDSLYNEGILIVWDPSVYHSDIPKWYQNPDYNFFNNYKTYRKLHPNQPFYILKPQMPWELWDILQEISPEEIQPNPPSSGMLGIIIMMTLCDQVDIYEFLPSKRKTDVCYYYQKFFDSACTMGAYHPLLYEKNLVKHLNQGTDEDIYLLGKATLPGFRTIHC
notes: recombinant human sialyltransferase, N-glycan specific
B4: FUT9: recombinant α-3 fucosyltransferase strictly active on lactosamine (protein, UniProt Q9Y231 1-359, looked up)
4-galactosyl-N-acetylglucosami …: T1 sequence (Q9Y231 1-359)

How the values were obtained:
FUT9 = target: T1, FUT9; test: Fluorescent labeling with fluorophore-conjugated fucose by FUT9; assay type: biochemical; conditions: 0.3 μg FUT9, 0.2 nmol donor, 30 μl, 37° C., FIG. 17
Experimental: (§1) FIG. 9A-FIG. 9B show exemplary results of probing substrate glycans of various fucosyltransferases on fetuin and asialofetuin. FIG. 9A. Probing substrate glycans of fucosyltransferases with guanosine 5′-diphosphate activated Cy5 conjugated fucose (GDP-Cy5-Fuc). […] FUT9 labeled itself (indicated by an arrow in the gel). FIG. 9B. Tolerance of Alexa-Fluor®555 (555), Alexa-Fluor®488 (488), and Cy5 by the indicated fucosyltransferases. All reactions were incubated at 37° C. for 30 minutes and then separated on SDS-PAGE and imaged with silver staining (upper panels) and fluorescent imager (lower panels). M, molecular marker.
FIG. 10A-FIG. 10D show exemplary results of probing core-6 fucosylation on antibodies by FUT8 incorporation of fluorophores. FIG. 10A. Results of probing substrate glycans of FUT8 (F8) and FUT9 (F9) on Cantuzumab, an anti-Muc1 therapeutic antibody, and NIST reference mAb 8671 using guanosine 5′-diphosphate activated Alexa-Fluor®555 conjugated fucose (GDP-AF555-Fuc) (555), GDP-Cy5-fucose (Cy5), and guanosine 5′-diphosphate activated Alexa-Fluor®488 conjugated fucose (GDP-AF488-Fuc) (488) as donor substrates. Cantuzumab was expressed in FUT8 knockout cells and is devoid of core-6 fucose. Molecular marker (MM) is a prestained Western molecular marker (Bio-Rad Laboratories, Hercules, CA). […] The product of each reaction was separated using SDS-PAGE and imaged with trichloroethanol (TCE) staining (upper panel) and fluorescent imager (lower panel). Labeling on the light chains of the antibodies by Alexa-Fluor®555 is likely the result of non-specific staining due to the use of unpurified GDP-AF555-Fuc that contained free Alexa-Fluor®555. FIG. 10B. […] FIG. 10C. […] FIG. 10D. Schematics of the glycan structures analyzed in FIG. 10B and FIG. 10C.
Mouse IgG (R&D Systems, Minneapolis, MN) was digested with Endo S thoroughly and labeled with 0.3 μg of FUT9 and 0.2 nmol of GDP-Cy5-Fuc in 30 μl at 37° C. for the indicated time points. The glycans were also pretreated with B4GalT2 for 5 minutes at 37° C. and then labeled in the same way. The reactions were separated on 15% SDS PAGE. B4GalT2 pretreatment converted all G1′ to G2′. Maximal labeling on G1′ and G2′ were achieved around 30 minutes. […] The heavy chain (HC) and light chain (LC) were visible in the TCE image. M, Western blot marker (Bio-Rad Laboratories, Hercules, CA).
(§2) For a typical labeling reaction, 1 μg to 5 μg target protein was mixed with 0.2 nmol GDP-f-Fuc and 0.2 μg of a fucosyltransferase in 30 μL buffer of 25 mM Tris pH 7.5, 10 mM MnCl2. The mixture was incubated at 37° C. for 30 minutes. The reaction was then separated by sodium dodecyl sulfate—polyacrylamide gel electrophoresis (SDS-PAGE) and the gel was directly imaged using a fluorescent imager FluorChem M ProteinSimple, Bio-Techne, Minneapolis, MN), followed by imaging with traditional protein imaging methods such as silver staining or trichloroethanol (TCE) staining.
The four enzymes tolerated the three fluorophores to different levels.

[1] = system: fetal bovine fetuin and asialofetuin; test: Labeling of fetuin and asialofetuin by fucosyltransferases with GDP-Cy5-Fuc; assay type: biochemical; conditions: GDP-Cy5-Fuc donor, FIG. 9A
Experimental: as §1, §2
The labeled samples were then separated on SDS-PAGE, followed by traditional protein gel imaging and fluorescent imaging.

asialofetuin = test: Asialofetuin labeling with variable amounts of ST3Gal1 or ST6Gal1 (FIG. 7); assay type: biochemical, bovine; conditions: 5 μg asialofetuin, 0.2 nmol CMP-Cy5-SA, 30 μL, 37° C., 30 minutes
[2] = system: fetal bovine fetuin and asialofetuin; test: Labeling of fetuin and asialofetuin by sialyltransferases with CMP-f-SA; assay type: biochemical; conditions: CMP-f-SA donors, FIG. 2
[3] = Enzymatic synthesis of Le^x and sLe^x by glycan gel electrophoresis, substrate G2; assay type: biochemical; conditions: for Relative activity: normalized to FUT6 on sLe^x synthesis
Experimental: FIG. 21A. Schematic view of the enzymatic steps for Le^X and sLe^X synthesis on the antibody glycan G0. The glycan short names follow that of FIG. 10. FIG. 21B Kinetic comparison of galactosylation on G0 by B4GalT1, sialyation on G2 by ST3Gal4 and ST6Gal1, and fucosylation on A2[3] by FUT7. The reaction time for B4GalT1 was 10 minutes. The reaction time for ST3Gal4, FUT7 and ST6Gal1 was 5 hours. In each case, the labeling enzyme was subject to a 3-fold serial dilution starting from 1 μg each of B4GalT1, FUT7 and ST6Gal1, and 3 μg ST3Gal4. FIG. 21C. […] Reaction time for both cases was 20 minutes. […] FIG. 21D. […] Reaction time for both cases was 20 minutes.
For a typical labeling reaction, 1 μg to 5 μg target protein was mixed with 0.2 nmol fluorophore-conjugated GDP-fucose and 0.2 μg of a fucosyltransferase in 30μL 25 mM Tris pH 7.5, 10 mM MnCl2. The mixture was incubated at 37° C. for 30 minutes. […] To release labeled glycans from a glycoprotein, the sample was first denatured by heating at 95° C. for two minutes in the presence of 0.5% SDS and 80 mM β-mercaptoethanol and then renatured with 1% Triton X-100, and finally treated with PNGase F at 10:1 mass ratio at 37° C. for 20 minutes. To release glycans from antibody, a sample was directly treated with Endo S at 10:1 mass ratio at 37° C. for 20 minutes. All samples were separated by sodium dodecyl sulfate—polyacrylamide gel electrophoresis (SDS-PAGE) at […]. For separating labeled glycoproteins and antibodies, 4-20% gradient SDS gel was used. For separating labeled free glycans, 15% or 17% gel was used. After separation, all gels were imaged using a FluorChem M imager (ProteinSimple, Bio-Techne, Minneapolis, MN). For glycoproteins samples, the gel was also imaged with traditional methods such as silver staining or trichloroethanol (TCE) staining.
For sLe^x synthesis, G0 was first converted to G2 by B4GalT1, then converted to A2[3] by ST3Gal4, and finally converted to A2[3]F2 (carrier of sLe^x) by FUT7 (FIG. 21A). During these steps, different amounts of enzymes, and multiple reaction times were applied to reveal the intermediate products.
Intermediate products are signs for the progress of each enzymatic step.

Molecule | Which of fetuin and asialofetuin the fucosyltransferase labeled [1] | Enzyme amount achieving maximal labeling of asialofetuin (asialofetuin) [µg] | Enzyme amount showing clear visible labeling on asialofetuin (asialofetuin) [µg] | Which of fetuin and asialofetuin the sialyltransferase labeled [2] | further results
guanosine 5′-diphosphate activated Cy5 conjugated fucose [GDP-Cy5-Fuc] |  |  |  |  | Time to maximal labeling of B4GalT2 by FUT9 (FUT9): 20 min; Time to maximal labeling on G1′ and G2′ by FUT9 (FUT9; Endo S digested mouse IgG): around 30 minutes
B1 | labeled asialofetuin |  |  |  | 
B2 |  | 0.5 | 0.063 | only labeled asialofetuin | 
B3 |  | 0.25 | 0.016 | only labeled asialofetuin | Time for the complete conversion of G2 to A2[6] ([3]; FIG. 21B): 5 h; Activity based on reaction completion ([3]; substrate G2, completed product A2[6]): 0.025 pmol/min/µg; Relative activity ([3]; substrate G2, product A2[6]): 0.19
B4 | labeled asialofetuin |  |  |  | Activity based on reaction completion ([3]; substrate G2, completed product Le^x): 2.3 pmol/min/µg; Relative activity ([3]; substrate G2, product Le^x): 17

— US20240168030A1, “DIRECT FLUORESCENT GLYCAN LABELING” (BIO-TECHNE CORPORATION, priority 2019, published 2024)
